Key:
Experiment in all cases: BLI
Mono G = target: Mono G
[1] = target: hexameric NiV G: two G ectodomain headgroups linked by a foldon trimerization domain via short glycine linkers (Nipah virus (Malaysia) | )
Stalk G = target: Stalk G
[2] = target: NiV G trimer: NiV G head domain residues 172-602 coupled to an N-terminal foldon domain ( | Nipah virus (Malaysia), UniProt Q9IH62 172-602)
[3] = target: NiV G ferritin 24-mer nanoparticle: NiV G ectodomain residues 172-602 linked to the C-terminus of fe (Nipah virus (Malaysia), UniProt Q9IH62 172-602)

B1: m102.4 monoclonal antibody (HeV G-specific antibody), human IgG1/kappa (antibody, V domains shown)
VH: EVQVIQSGADVKKPGSSVKVSCKSSGGTFSKYAINWVRQAPGQGLEWMGGIIPILGIANYAQKFQGRVTITTDESTSTAYMELSSLRSEDTAVYYCARGWGREQLAPHPSQYYYYYYGMDVWGQGTTVTVSS
VL: EIVMTQSPGTLSLAPGERATLSCWASQSVRNNYLAWYQQKPGQAPRLVIYNGSTRATGIPDRFSGSGSGTDFTLTISRLDPEDFAVYYCQQYGNSRRVTFGGGTKVEIK
Kd (Mono G): 402 nM
koff (Mono G): 0.131 s⁻¹
Kd [1]: 86.2 nM
koff [1]: 0.0596 s⁻¹
Kd (Stalk G): 112 nM
koff (Stalk G): 0.0849 s⁻¹
Kd [2]: 153 nM
koff [2]: 0.0857 s⁻¹
Kd [3]: 17.8 nM
koff [3]: 0.0279 s⁻¹

Source: article PMC7300195 (2020)
